Target: eGFP-DGKζ (fusion of enhanced green fluorescent protein and diacylglycerol kinase ζ) (UniProt Q80UP3 1-929)
Test: co-IP

Sequence of eGFP-DGKζ (fusion of enhanced green fluorescent protein and diacylglycerol kinase ζ) (Q80UP3 whole entry, the tested form may be a part): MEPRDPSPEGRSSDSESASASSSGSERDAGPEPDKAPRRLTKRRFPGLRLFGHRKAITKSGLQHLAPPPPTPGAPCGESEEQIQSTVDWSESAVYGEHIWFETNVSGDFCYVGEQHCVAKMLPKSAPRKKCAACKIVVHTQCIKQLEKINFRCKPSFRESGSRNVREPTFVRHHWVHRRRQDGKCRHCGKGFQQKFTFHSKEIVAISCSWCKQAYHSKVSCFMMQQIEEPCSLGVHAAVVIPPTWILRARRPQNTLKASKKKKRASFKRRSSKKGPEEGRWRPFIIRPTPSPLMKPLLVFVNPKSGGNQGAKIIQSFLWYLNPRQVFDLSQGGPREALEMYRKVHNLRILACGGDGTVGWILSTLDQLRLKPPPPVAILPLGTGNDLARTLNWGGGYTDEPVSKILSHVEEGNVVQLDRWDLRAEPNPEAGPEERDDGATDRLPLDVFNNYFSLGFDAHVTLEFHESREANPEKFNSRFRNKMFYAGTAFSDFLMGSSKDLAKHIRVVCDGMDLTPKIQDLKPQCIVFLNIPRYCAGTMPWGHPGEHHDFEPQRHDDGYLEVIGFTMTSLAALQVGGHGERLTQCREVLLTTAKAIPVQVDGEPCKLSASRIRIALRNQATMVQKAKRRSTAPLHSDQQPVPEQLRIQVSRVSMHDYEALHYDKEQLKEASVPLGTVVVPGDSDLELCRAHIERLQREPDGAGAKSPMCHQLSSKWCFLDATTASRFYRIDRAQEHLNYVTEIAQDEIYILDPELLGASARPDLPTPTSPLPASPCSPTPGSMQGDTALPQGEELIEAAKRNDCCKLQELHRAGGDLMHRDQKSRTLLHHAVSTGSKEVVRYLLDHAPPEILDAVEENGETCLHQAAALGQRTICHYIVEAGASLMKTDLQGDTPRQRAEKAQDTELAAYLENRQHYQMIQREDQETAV

B1: RasGRP1 (Ras guanyl nucleotide-releasing protein 1), from pEF6-huRasGRP1-myc/His wild-type plasmid (natural protein, human, UniProt O95267 1-797, looked up)
chain: MGTLGKAREAPRKPSHGCRAASKARLEAKPANSPFPSHPSLAHITQFRMMVSLGHLAKGASLDDLIDSCIQSFDADGNLCRSNQLLQVMLTMHRIVISSAELLQKVITLYKDALAKNSPGLCLKICYFVRYWITEFWVMFKMDASLTDTMEEFQELVKAKGEELHCRLIDTTQINARDWSRKLTQRIKSNTSKKRKVSLLFDHLEPEELSEHLTYLEFKSFRRISFSDYQNYLVNSCVKENPTMERSIALCNGISQWVQLMVLSRPTPQLRAEVFIKFIQVAQKLHQLQNFNTLMAVIGGLCHSSISRLKETSSHVPHEINKVLGEMTELLSSSRNYDNYRRAYGECTDFKIPILGVHLKDLISLYEAMPDYLEDGKVNVHKLLALYNHISELVQLQEVAPPLEANKDLVHLLTLSLDLYYTEDEIYELSYAREPRNHRAPPLTPSKPPVVVDWASGVSPKPDPKTISKHVQRMVDSVFKNYDHDQDGYISQEEFEKIAASFPFSFCVMDKDREGLISRDEITAYFMRASSIYSKLGLGFPHNFQETTYLKPTFCDNCAGFLWGVIKQGYRCKDCGMNCHKQCKDLVVFECKKRAKNPVAPTENNTSVGPVSNLCSLGAKDLLHAPEEGPFTFPNGEAVEHGEESKDRTIMLMGVSSQKISLRLKRAVAHKATQTESQPWIGSEGPSGPFVLSSPRKTAQDTLYVLPSPTSPCPSPVLVRKRAFVKWENKDSLIKSKEELRHLRLPTYQELEQEINTLKADNDALKIQLKYAQKKIESLQLEKSNHVLAQMEQGDCS
- fold binding relative to DGKα: ≤ 3 fold

Reference: PMC4096120 (Science signaling, 2013)
